The values that follow come from a protein production outcome set (Wang et al. 2014).

The nature of this data set: label from the status in PepcDB records.
Regarding “MLLDGTPFARRRVTSLTSANRKGAARRTCPEAAGGPMASSAGLALCAQTLVVRGGSRFLAFSTTGSDDDCVFTYDCSTAEKKATPEDKGEDGQPADTGSDSILASTFSKSGRYFALTDDSKRLILFRTKPWQCLSARTIACQCVYFCVLDGIKCVLFRNSTRQVLSQACIEPAHCCGAVVSGSLCPLVIXAVSPDDQFVLTADRDEKIRVSWAAAPHSIESFCLGHTEFVSRILVVPSHPELLLSSSGDGTLRLWEYRSGRQLQCCDLAGLQEPGEQPGHKGLAASRIAFWGQESYVVLLCECVPVVFVFQLDASRQQLVFRQRLTFPHRVWDVVFEEARGLWVLQDCRDAPLVLWRPVGGEWQAAPDGAVSPRLCSHLRESWAMLEGSVGTDDSFRSLYKATFDNMTSYLKKKEERLQQQLKKKRQRSPFPGSPEQTKKACPGQSALSC”, the protein production entry is recorded as “failed”.

Regarding “MGVLTTFISQKALVGGYDNTIEPGVVILSGATITCNVSIGQGTFINKSTVISHDVRIGRYCEVSPGAKVLGRAIIGDRTEIGANAVILPDVIVGADCKIGAGAVVTRNIDSHTTVAGVPARSITKSSNNAFKLKSKIRNLLYHIRIADFRKLREYNHYVFGLEHHHHHH”, the protein production result was “failed”.

Regarding “MCLGMAGEHMAPNSKHLSLHMPVDFIDALAQAESIDEILKVVATWFMEMFVADRASITFPVNDSHLRVVALEGNRVIDVDAPVPIHGTMVGRVFSRGQAEICDDLAASTDLDCLILASRGLGSCLDAPLRSGRDCYGTINVGRRDRNGFTLADMRKIEALAMWIATLIRVHRQVERLTHLSRTDPLTQIMNRRAFTESFQTRRLEGERRRAEVGTGLGFAVVDIDHFKQINDTYGHDVGDVVLAFVGKMMNEFFRESDCVARFGGEEFCVLMQDVDEGGMQRLLERFRVALGDCVVTHSAGTVSITASIGAVLVKTSVAGIDRAFRSADLALYKAKADGRNRVRIAPSAEQSHAGNPANRLCYPG”, the protein production result is “failed”.

For “GREQMASFESAYVALSRMKQHVQVYTDNREGWIKAIKNSPEKATAHDILEPRNDRAVKTADLLFGRARPLDETAAGRAALQQSGLAQGSSPGKFISPGKKYPQPHVALPAFDKNGKAAGIWLSPLTDRDGRLEAIGGEGRIMGNEDARFVALQNSRNGESLLAGNMGEGVRMARDNPDTGVVVRLAGDDRPWNPGAMTGGRVWAEPAPVAPVPQAGADIILPPEVLAQRAAEEQQRREMEKKAEQTAREMAGEARKAG”, the protein production entry was “failed”.

In the case of “MHLKNNQTLANGATVTIYPTTTEPTNYVVYLHGGGMIYGTKSDLPEELKELFTSNGYTVLALDYLLAPNTKIDHILRTLTETFQLLNEEIIQNQSFGLCGRSAGGYLMLQLTKQLQTLNLTPQFLVNFYGYTDLEFIKEPRKLLKQAISAKEIAAIDQTKPVWDDPFLSRYLLYHYSIQQALLPHFYGLPENGDWSAYALSDETLKTFPPCFSTASSSDEEVPFRYSKKIGRTIPESTFKAVYYLEHDFLKQTKDPSVITLFEQLDSWLKER”, the protein production result was “not failed”.

“MMSVLARMRVMRHRAWQGLVLLVLALLLSSCGWRGISNVAIPGGPGTGPGSYTIYVQMPDTLAINGNSRVMVADVWVGSIRAIKLKNWVATLTLSLKKDVTLPKNATAKIGQTSLLGSQHVELAAPPDPSPVPLKDGDTIPLKRSSAYPTTEQTLASIATLLRGGGLVNLEGIQQEINAIVTGRADQIRAFLGKLDTFTDELNQQRDDITRAIDSTNRLLAYVGGRSEVLNRVLTDLPPLIKHFADKQELLINASDAVGRLSQSADQYLSAARGDLHQDLQALQCPLKELRRAAPYLVGALKLILTQPFDVDTVPQLVRGDYMNLSLTLDLTYSAIDNAFLTGTGFSGALRALEQSFGRDPETMIPDIRYTPNPNDAPGGPLVERGNRQC”: the protein production entry was “failed”.

Consider “MNIQLNGQCRCIPETSSIAGLLAEEGFSERRVAVEVNGEIVPRTLHVNYVLREGDRVEIVHALGGG”, for which the protein production result was “failed”.

For the sequence “MSKGKYIHFDTLVSAKTGDIVAIQDILNQFRGYIISRSLRTAYRSDGSLYQYIDTDVQHKMETDLIEAIYKFEIRLEHHHHHH”, the protein production entry is reported as “failed”.

Take “MFNPNVAVKNIVTQNGADSIISLIARILMAYIFLVAGWGKITAYSATVGYMEAMGVPGALLPLTILVEFGGGLALLFGFQARFAAFGLGIFSLLTAFIFHEGTDQAQAINFMKNFAMAGGLFFLMLHGAGKISLDAAIEK”: the protein production result is “failed”.

As to “MSIIIPAYNEEENIKRAIKAALSQDYPVSEVIVVDDGSEDGTYERAKEIKDHRLKVLKIDHRGKAGAINEGLKIAKGSVIVTTDADSFMSKDAVRRLVERFYSDDVVAVGGQIRVIVESFMTLVQDIEHLRIAMYRRGKELENLSLAPGPLSAFRRDVLEKIGGIQRSIVEDYATTKIVKKYGRVVYAPKAKLYTRMPITLRDLWRQRKRWFLGDLQHHNLNDLLNLLLGDVIALLDVILPFIFLLEGSYLPLLAFVMFEVITMVIAVIWEGGSLIEALLFPVVLWFLALFYLSLHLYGYAVYGLKSLLRFTRS”, the protein production result is listed as “failed”.

Take “MQDRCPHQDHRSIPTIMPDLEPDTVSALEAPEFAPAQFVRWFREVAPYVHAFRGKTFVVAFGGELVQAGALNVLVQDLSLLSALGIHLVLVHGSRPQVNEQLRLKGYTQQFGRGLAPTDPAALECAKEAAGEIRLDIEAAFSQGLPNTPMSHSHIRVLSGNFVTARPTGVVDGIDYKHTGQVRKIDVDALKFAIEQGSVVLLSPLGFSPTGDAFNLAMEDLATSVAVALRAEKLIFLSGEPGVLDGNGAVDTELARVDADALLARGELDEDTTYFLQHASLAVKRGVARAHLVPYALDGSVLLEIFTHDGVGTMVVEDTLDDLRAATLDDVGAILSLIEPLETDGTLVPRPRSAIERDVERFTVLEHDGVIYGCAALYPFPEDQMAEMACLIVHPEWQGSGEGEILLRHMESRARASGARRLFVLTTRTSHWFMKRGFVRGGVADLPRDKQNNYNRSRNSLVFIKKL”: the protein production result is reported as “failed”.

Consider “MDLKGWISKKSSNVSYEKIKYEFSNVKYSVDHGRLEILHGIKGILLPKTITVIMGPSGSGKTTLLNILSMKVTEGVEGDFLINDMSRMKNIKRHMGYVLQDDYFFSRLTVYETIEFTAKLKLDIRDKKKLNELVHSVLDIMSLTHVKDTIVGDAFIRGISGGQRKRLSIANEILSNPPLLLMDEPTSGLDSSSALSLVECIQRIAQTSNTTIISSLHQPSSQVFSKFDRLIAITNGYIIYHGKTTDLNKYLKKVGFICPYGWNVADYLMDILSNKKFEAILIDNYNKYLHFDSDVGYYMNVKAIDSKIIHDDYDSILEKTNQSISKNSQTNNKSSTNLSSINKSPILSTQENKTREHDILKFQAVELLISLQENKTPYIRQNFFLLIRGLKKIITDEITIIKVIDLVVILTLFGVLWLHTFKEETEEGIIDTIGAIFFILSYWTFYPAYLSLYSFPSEREVIAKERNMKTFQVSNYFLSKLLAEFIYFFMIIAFWILVTHLILYGTLKIGIYLSYAFITLLNALISSSLGYFISTLFDNFSKAVSFLSVVLLTMTLTNGFYVEISKLDVPFRYLQWLSYQTYSASVLAKIKFDDALIKCSPDNNSLPCKNNGFFPGEIIVQKRFATLHISISILILICFYSVIKTFTYVSLRWSQALKMK”, for which the protein production entry is recorded as “failed”.

As to “VQLVRLLEEKIKSLQIEIENLRKELNYYKAEMEKMLSPPLIEAVVLDVLPDGRVLVRSSSGPNLVVNIASHIDQKLIKPGISVALNQRGSTILEVLPQKEDPIVKTMEIIERPN”, the protein production entry is reported as “not failed”.

On to “MMELDLPATIKRDMKFRYLLIIVPLLFPAHIFGQELPDLGDVSQASVTPHQERQIGIQIMREIRADSSYLDDPEIADYLTRLGNRLIAASGQTNPDNPFEFFAINDSSINAFALPGAFVGFHSGLITAAQNESELAGVMAHEIAHVTQKHLARMISGTSYLGLLGSIAALAIAILASRSNPNAGQAVLATAQASAIQSQLNFTRKHEKEADRVGFNMLIKAGFDPHGMSSFFERMQHASRYYENGMPSYLMTHPVTHERIADIQNRTQELGYRQVPDSLEFHLVRAKIRASRGNPASVINEFKARLQDKRYINEIAEQYGLIQALLRARQFKQADEELNTLYRTIQSDSSAQSLKNHRLGKSIQVDGDYLQSAAMIETLAARVKFASGQTDDAFRLYQSALQSFPHYRALVYGYADALLQHKDAQAALDFINGQSQFIHDDIRLYRLTAQCHAALGNALLQHQAEAEALIREGNLRAAIEQLQIALRHKHDNFYQLSSVEARLRQIKEFVAAEKEKK”, for which the protein production result is given as “failed”.

As for “MEVIVVDDEELSLNRLGNMLAGMPGVEVCGLFYTAAEALRYINENKPDAVFLDICIPETDGLALANKIKDIDGSAKVVFVTGYDEYAVRAFELEAVDYLMKPISRDRLEKTVQRLQRTLLGTDRQSNPQMKVSCFGGFRATVCESDSGSVNWRSPKTEELFAFLIFKRNVSRDEIANTLWDGLEPGRALTNINSTMYYIRKALSPHGLEKCIAATRKEIRIDSELISCDLYEFERLLRGRPSSKDRVETLDRLAELYKGELFQGKAYEWSFAKSRSLESGFISALLETAEYYREKRGYEQAEKMYKRAFEIDPFNEDICGHIIQICLKMGRKSEALRLYLQMEKFLMEELGEKPQAKLKKLFEEQ”, the protein production entry is given as “failed”.

For the sequence “MLLPRMLEEVVLAVPARDYDRVVAGLAVEGIFHVDSPPQGVKGEVDRSYRALLTQASERSSRIRQYFDLAGVEPYRVSGVEIEVGGWGESWKRYLEKYSGVEKFYSGLLEEYSEAEARLKELLDIEARIAPVAHLDVDIARLYRSGAFDFAVYYGSYSEGLESRVGEIVSRVGGLAAVEASGGSVVVAVAVPKGALSKISPEILRLNLSIYTPPEGVPGSPREAMEYIRGEKARLGRRLVSIQEMASERLGELAEFYTVVTAFENIFKFLVSTLRRGETRIVRGFVDVRDSGRLRSIVDRMTRGSYVLLSLGVRRGGEAPIPSKVDLPQFLKPFSRVVELYGYPEPNEIVPTVFLAITLPLTFALMFPDAGQGLLVLLFSLFYLRRVSRDWAYVIAVMGGASVVSGLLAGEVFGPLVSKMLGLPELWYRLGLETPPYAMPTYAIDHGEEELVPVLVYRALNVSLFMGAFMLSFGTFLGVVNGVIKRDWVGLVESRLPRFLLFASITGPFLVYMDAGEAGSVLRQALLELGGDSIAAKLVLAGSVLGLAWMLLAGPIIYMLEGHSPLAGLANSFLEAYESLLMLVGNIPSFLRIMALALAHSSLMFVIYYLTVMIMQGGILADVVGALLYVGGNLAVAAMEGLLAFAHASRLHFYEWFSKFYSGTGVPYTPIKVEGVRIKIAGQTF”, the protein production entry is listed as “failed”.

On to “MAEAVLENVNVPAVVSKDECIYCFESPYNEPLALNASPKHSLNICLNCFQATCNRHVPLHIRVTEYACDTIHSNYLTIAKVEKPKQENVEENNNNKKIKLQVIETSEDDTHNTIWSLQRFNGENVPRTVLSKSTDSDISSTALEKIEKILKAKSQDFEDKKNSWVLEISTCPHTENFQIPSKPENTVNLNQCSSCDLTQNLWLCLHCGNIGCGREQIGIDGHSHALDHYRSNNNHPLAIKLGSLSSSTYDLYCYACDDETRFPDNVNLGSALQIYGINIQEKIADEKTLVQLQVEQNENWQFRMVDSSGKEFEKLSASKNYGCGLINLGNSCYLNSVIQSLVNGGVPNWSLDFLGSKFPLDVVYPDNNLKCQWIKLLNAMKCEPELYPNGIKPTTFKKCIGQNHQEFSSNRQQDAMEFLTFLLDLLDKKFFSSSSSGIPNPNDLVRFMMEDRLQCNICGKVKYSYEPTEAIQIPLEENDEPQDMLERIKAYFEGQTIEFKCANCKEKVTANKKPGFKSLPQTLILNPIRIRLQNWIPVKTSNELSLPGLIDRDDMLDVSSYLSQGFDPQTENLLPDEDENRSSFTPNQCSISQLIEMGFTQNASVRALFNTGNQDAESAMNWLFQHMDDPDLNDPFVPPPNVPKKDKREVDEVSLTSMLSMGLNPNLCRKALILNNGDVNRSVEWVFNNMDDDGTFPEPEVPNEEQQQKKDLGYSTAKPYALTAVICHKGNSVHSGHYVVFIRKLVADKWKWVLYNDEKLVAADSIEDMKKNGYIYFYTRC”, for which the protein production entry is listed as “failed”.
